Test results taken from patent US20070258992A1.

Target: mouse synaptosomes

Substance “active botulinum neurotoxin A (from UniProt P0DPI0 2-1296)” has a maximum inhibition of 78%.
